In PMC7489894 (Biochemical Journal, 2020):
Where no end group is shown, it is not given here.

Tests used:
HyBcl-2-4 = experiment: ITC binding of BH3 motif peptides to HyBcl-2-4; set-up: species or system Hydra vulgaris; conditions: read-out: KD (dissociation constant), HyBcl-2-4, MicroCal iTC200, 25°C, tag-free HyBcl-2-4 lacking 30 C-terminal residues, 25 mM Hepes pH 7.5, 150 mM NaCl, means of 3 experiments ± SD, NB: no binding detected
[1] = target: HyBcl-2-4 lacking 30 C-terminal residues (fusion tag-free) (Hydra vulgaris); experiment: ITC
[2] = target: human Bcl-2 (residues 10-203) (human, UniProt P10415 10-203); experiment: ITC
[3] = target: human Mcl-1 (residues 171-320) (human, UniProt Q07820 171-320); experiment: ITC
[4] = target: human Bcl-xL (residues 1-209 Δloop45-84) (human, UniProt Q07817-1 1-209, Δloop45-84); experiment: ITC
[5] = target: T1, human Bcl-w (residues 9-152) (human, UniProt Q92843 9-152); experiment: ITC
T1 sequence (looked up): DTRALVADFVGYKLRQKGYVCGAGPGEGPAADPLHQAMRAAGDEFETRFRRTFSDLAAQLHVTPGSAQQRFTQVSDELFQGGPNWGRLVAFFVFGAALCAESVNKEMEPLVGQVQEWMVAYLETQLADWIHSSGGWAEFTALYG

[6] = target: T2, human A1/Bfl-1 (residues 1-151) (human, UniProt Q16548 1-151); experiment: ITC
T2 sequence (looked up): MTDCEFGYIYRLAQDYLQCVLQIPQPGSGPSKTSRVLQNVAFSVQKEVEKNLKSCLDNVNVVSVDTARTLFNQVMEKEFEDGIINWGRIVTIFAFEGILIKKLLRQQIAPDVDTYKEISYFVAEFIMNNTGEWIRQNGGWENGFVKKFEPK

Sequence of human Mcl-1 (residues 171-320) (Q07820 171-320): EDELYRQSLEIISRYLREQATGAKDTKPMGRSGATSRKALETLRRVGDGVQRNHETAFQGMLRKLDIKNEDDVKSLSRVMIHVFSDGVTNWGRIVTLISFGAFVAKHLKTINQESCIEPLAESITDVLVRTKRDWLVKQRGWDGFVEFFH
Sequence of human Bcl-2 (residues 10-203) (P10415 10-203): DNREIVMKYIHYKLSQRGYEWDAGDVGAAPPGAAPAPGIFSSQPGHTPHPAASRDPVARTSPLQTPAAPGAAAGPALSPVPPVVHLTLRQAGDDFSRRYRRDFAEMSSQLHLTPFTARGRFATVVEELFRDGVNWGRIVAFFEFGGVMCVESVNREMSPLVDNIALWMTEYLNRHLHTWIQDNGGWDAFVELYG

In the case of SMRRLRAIGACLRAIGDDIQSRSEKS [HyBH3-only], the Kd (HyBcl-2-4) is reported as 149 nM.

B1: HyBH3-only-2 BH3 motif peptide (peptide)
peptide: SMRRLRAIGACLRAIGDDIQSRSEKS
In the case of B1, the Kd [1] is reported as 149 nM, the binding result [2] is reported as “binds” and the Kd [3] is reported as 50 nM. B1: binds [4]; binds [5]; binds [6].

B2: HyBax BH3 motif peptide (peptide)
peptide: SRNGTVNKEVAHCLKRIGDDLVNNHQLN
For B2, the Kd [1] was 2290 nM, the binding result [2] was “binds” and the Kd [3] was 41 nM. B2: binds [4]; binds [5]; binds [6].

B3: HyBak1 BH3 motif peptide (peptide)
peptide: SNGETENLGRVLASFGDEINDKYRQV
B3 was tested, and the binding result [2] was “binds”, the Kd [3] was 67 nM and the binding result [4] was “binds”. B3: binds [5]; binds [6].
